In article PMC2946933:

Biological target: Hfq K56A K56A (UniProt P0A6X3)
Test: SPR
Conditions: EMSA: 50 mM Tris-HCl pH 7.5, 100 mM KCl, 10 mM MgCl2, room temperature, SPR: same buffer, 25 C, Tb footprinting: 50 mM Tris-HCl pH 8.0, 100 mM NaCl

## GCAGCGUUACAUUCCCAUCCACUGGGGAAAGACGCGGCGCUGAUUGGUGAAGUGGUGGAACGUAAAGGUGUUCGUCUUGCCGGUCUGUAUGGCGUGAAACGAACCCUCGAUUUACCACACGCCGAACCGCUUCCGCGUAUAUGCUAAUAAAAUUCUAAAUCUCCUAUAGUUAGUCAAUGACCUUUUGCACCGCUUUGCGGUGCUUUCCUGGAAGAACAAAAUGUCAUAUACACCGAUGAGUGAUCUCGGACAACAAGGGUUGUUCGACAUCACUCGGACAAAUAUUGGAUCCGCUCGG [fhlA220 mRNA]
  Kd: 3 nM
